Experiments:
[1] = target: c1d1_v2 displayed on yeast (S. cerevisiae); assay: Fab titration on yeast-displayed construct, flow cytometry
[2] = target: c1d1_N386D displayed on yeast (S. cerevisiae); assay: as above
[3] = target: c1d1_b10disulf displayed on yeast (S. cerevisiae); assay: as above
[4] = target: eOD_VH1-2_v6.0 (HIV-1 HxB2 (engineered)); assay: dissociation constant, SPR (FIG. 3)
[5] = target: eOD_VH1-2_v6.0 (HIV-1 HxB2 (engineered)); assay: SPR, IgG captured by anti-human IgG, eOD as analyte, 1:1 fit with mass transport
eOD_VD(-)_g4 = assay: Kd, method not stated; construct from 293 cells
eOD_VD(-)_g5 = assay: Kd, method not stated; construct from 293 cells
eOD_VD(-)_g3 = assay: Kd, method not stated; construct from 293 cells
eOD_VD(-)_g2 = assay: Kd, method not stated; construct from 293 cells
eOD_VD(-)_g7 = assay: Kd, method not stated; construct from 293 cells
eOD_VD(-)_g8 = assay: Kd, method not stated; construct from 293 cells
eOD_VD(-)_g6 = assay: Kd, method not stated; construct from 293 cells
c1d1_v2 [6] = assay: ITC
c1d1_N386D [7] = assay: ITC
c1d1_b10disulf [8] = assay: ITC
[9] = target: ODml(N386) (Human immunodeficiency virus type 1 group M subtype B (isolate HXB2) (HIV-1)) (UniProt P04578); assay: SPR (value differs from Table 1)
eOD_N276D_N463D [10] = assay: method not stated; protein from 293 cells
c1d1_N386D [11] = assay: method not given
eOD_T257S_L260F_S375W = assay: method not stated
eOD_N276D = assay: method not stated
eOD_L260F_N276D = assay: method not stated
eOD_L260F = assay: method not stated
[12] = target: eOD_T257S_S375W (HIV-1 HxB2 (engineered)); assay: method not stated
c1d1_v2 [13] = assay: SPR, IgG captured by anti-human IgG, construct as analyte
[14] = target: wild-type core GP120 (Human immunodeficiency virus type 1 group M subtype B (isolate HXB2) (HIV-1)) (UniProt P04578); assay: as above
[15] = target: ODml(N386) (Human immunodeficiency virus type 1 group M subtype B (isolate HXB2) (HIV-1)) (UniProt P04578); assay: as above
c1d1_N386D [16] = assay: as above
c1d1_minglyc [17] = assay: as above
c2d1_b10disulf = assay: as above
c1d1_N386D [18] = assay: SPR and ITC
c1d1_N386D [19] = assay: ITC, b12 IgG
[20] = target: ODml(D386) (Human immunodeficiency virus type 1 group M subtype B (isolate HXB2) (HIV-1)) (UniProt P04578); assay: SPR
c1d1_b2021 [21] = assay: SPR
c1d1_v2 [22] = assay: SPR
[23] = target: ODml(d1_disulf) (Human immunodeficiency virus type 1 group M subtype B (isolate HXB2) (HIV-1)) (UniProt P04578); assay: SPR
c1d1_N386D [24] = assay: SPR
c1d1_minglyc [25] = assay: SPR
[26] = target: OD(D386) (Human immunodeficiency virus type 1 group M subtype B (isolate HXB2) (HIV-1)) (UniProt P04578); assay: SPR, IgG captured by anti-human IgG, construct as analyte
[27] = target: ODml(D386) (Human immunodeficiency virus type 1 group M subtype B (isolate HXB2) (HIV-1)) (UniProt P04578); assay: as above
c1d1_b2021 [28] = assay: as above
[29] = target: ODml(d1_disulf) (Human immunodeficiency virus type 1 group M subtype B (isolate HXB2) (HIV-1)) (UniProt P04578); assay: as above
c1d1_b10disulf [30] = assay: as above
[31] = target: eOD_VH1-2_v6.0 (HIV-1 HxB2 (engineered)); assay: dissociation constant, method not stated
[32] = target: eOD_VH1-2_v6.0 (HIV-1 HxB2 (engineered)); assay: dissociation constant, SPR (FIG. 2)
[33] = target: core_gp120_VH1-2_v2.0 (HIV-1 BaL (engineered)); assay: SPR
[34] = target: eOD_VH1-2_v1.0 (HIV-1 HxB2 (engineered)); assay: SPR
[35] = target: eOD_VH1-2_v4.0 (HIV-1 HxB2 (engineered)); assay: method not stated
eOD_N276D_N463D [36] = assay: method not stated
[37] = target: eOD_VH1-2_v6.0 (HIV-1 HxB2 (engineered)); assay: SPR, IgG captured by anti-human IgG, eOD as analyte, 1:1 kinetic fit

VRC01 Fab
Kd [1]: > 50 nM
Kd [2]: > 50 nM
Kd [3]: > 50 nM

VRC01 IgG (mature) (antibody)
Kd [4]: 1.7 nM
Kd [5]: 1.7 nM
koff [5]: 0.000251 s⁻¹
kon [5]: 148000 M⁻¹ s⁻¹
Kd (eOD_VD(-)_g4): 7.3 nM
Kd (eOD_VD(-)_g5): 15 nM
Kd (eOD_VD(-)_g3): 4.7 nM
Kd (eOD_VD(-)_g2): 7 nM
Kd (eOD_VD(-)_g7): 109 nM
Kd (eOD_VD(-)_g8): 2.8 nM
Kd (eOD_VD(-)_g6): 4.6 nM
Kd (c1d1_v2 [6]): 100 nM
Kd (c1d1_N386D [7]): 200 nM
Kd (c1d1_b10disulf [8]): 100 nM
fold improvement of KD over c1d1 N386D (c1d1_b10disulf [8]): 2 fold
Kd [9]: 530 nM
Kd (eOD_N276D_N463D [10]): 4 nM
Kd (c1d1_N386D [11]): 80 nM
fold weaker affinity than core gp120 (c1d1_N386D [11]): > 10 fold
Kd (eOD_T257S_L260F_S375W): 8.6 nM
Kd (eOD_N276D): 27.8 nM
Kd (eOD_L260F_N276D): 11.9 nM
Kd (eOD_L260F): 14.3 nM
Kd [12]: 90 nM
Kd (c1d1_v2 [13]): 249 nM
Kd [14]: 3.9 nM
Kd [15]: 298 nM
Kd (c1d1_N386D [16]): 139 nM
Kd (c1d1_minglyc [17]): 7.5 nM
Kd (c2d1_b10disulf): 289 nM
fold weaker KD than core gp120 (c1d1_N386D [18]): 35 to 50 fold

b12 Fab
Kd [1]: 11 nM
Kd [2]: 21 nM

b12 IgG (antibody)
Kd (eOD_VD(-)_g4): 76 nM
Kd (eOD_VD(-)_g5): 132 nM
Kd (eOD_VD(-)_g3): 21.6 nM
Kd (eOD_VD(-)_g2): 96 nM
Kd (eOD_VD(-)_g7): 421 nM
Kd (eOD_VD(-)_g8): 7 nM
Kd (eOD_VD(-)_g6): 514 nM
Kd (c1d1_N386D [19]): 65 nM
fold improvement of KD over OD(D386) [20]: 3 fold
Kd (c1d1_b2021 [21]): 148 nM
fold weaker KD than c1d1 N386D (c1d1_b2021 [21]): 2.5 fold
fold improvement of KD over c1d1 N386D (c1d1_v2 [22]): 2 fold
fold improvement of KD over c1d1 b10disulf (c1d1_v2 [22]): 8 fold
fold improvement of KD over OD(D386) [23]: 9 fold
fold improvement of KD over ODml [23]: 3 fold
fold improvement of KD over OD(386) (c1d1_N386D [24]): 28 fold
fold improvement of KD over ODml (c1d1_N386D [24]): 9 fold
fold improvement of KD over c1d1 N386D (c1d1_minglyc [25]): 2 fold
Kd [26]: 1600 nM
Kd [27]: 530 nM
Kd (c1d1_b2021 [28]): 120 nM
Kd (c1d1_v2 [13]): 30 nM
Kd [29]: 175 nM
Kd [14]: 4.5 nM
Kd [15]: 1900 nM
Kd (c1d1_N386D [16]): 59 nM
Kd (c1d1_minglyc [17]): 31 nM
Kd (c1d1_b10disulf [30]): 200 nM
Kd (c2d1_b10disulf): 148 nM

germline NIH45-46 (antibody)
Kd [31]: 408 nM

germline VRC01 (antibody)
Kd [32]: 44 nM
Kd [33]: 1600 nM
Kd [34]: 40000 nM
Kd [35]: 100 nM
Kd (eOD_N276D): 640000 nM
Kd (eOD_L260F_N276D): 149000 nM
Kd (eOD_L260F): > 500000 nM
Kd (eOD_N276D_N463D [36]): 380000 nM
Kd [37]: 43.6 nM
koff [37]: 0.000683 s⁻¹
kon [37]: 15700 M⁻¹ s⁻¹

mature NIH45-46 (antibody)
Kd [31]: 3.8 nM

Reference: patent US10221217
